Experimental data reported in patent US20160333110A1 (CHIOME BIOSCIENCE, published 2016).

What was measured:
[1] = biological target: T1, human TROP-1/EpCAM protein transiently expressed in CHO-K1 cells (human, UniProt P16422 24-314); experiment: FACS on CHO-K1 cells transiently expressing human EpCAM/TROP-1
T1 construct: whole, on cells; also called human EpCAM/TROP-1; hEpCAM; not shown: C-terminal myc/His tag from pcDNA3.1-hEpCAM-myc/His
T1 sequence (looked up): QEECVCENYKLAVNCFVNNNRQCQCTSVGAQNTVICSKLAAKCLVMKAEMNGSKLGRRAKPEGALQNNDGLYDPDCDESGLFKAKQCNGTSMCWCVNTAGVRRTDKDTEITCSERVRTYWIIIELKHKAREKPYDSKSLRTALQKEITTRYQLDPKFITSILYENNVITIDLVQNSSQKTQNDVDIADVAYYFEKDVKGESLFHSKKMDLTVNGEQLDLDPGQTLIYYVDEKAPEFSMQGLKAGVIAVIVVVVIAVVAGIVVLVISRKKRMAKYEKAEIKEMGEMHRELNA
From the text: (§1) Specifically, each of an expression vector (mouse TROP-2-pcDNA3.1(+), furnished by the Institute of Molecular and Cellular Biosciences, the University of Tokyo) comprising the full-length cDNA of a mouse TROP-2 gene (GenBank accession No. NM_020047, Y08830), and an expression vector (pcDNA3.1-hEpCAM-myc/His) comprising the full-length cDNA of a human TROP-1/EpCAM gene (GenBank accession No. NM_002354), was transiently introduced into CHO-K1 cells, using Lipofectamine2000 reagent (Invitrogen). Thereafter, 24 to 48 hours later, the cells were removed from a culture dish by treating them with trypsin, and a cell suspension was then prepared. The thus prepared cell suspension was successively reacted with the produced anti-hTROP-2 monoclonal antibody (0.1 μg) and with PE-labeled anti-mouse IgG, and it was then analyzed by FACSCalibur.

[2] = biological target: T2, recombinant hTACSTD2-Fc-His protein (Creative BioMart) (human, UniProt P09758 27-274, limits assumed); experiment: low-density antigen-coated ELISA, plate coated with 0.1 µg/mL hTACSTD2-Fc-His
T2 construct: bought protein; also called hTROP-2 (low-density antigen-coated ELISA); not shown: Fc part of the bought fusion protein; not described; His tag
T2 sequence: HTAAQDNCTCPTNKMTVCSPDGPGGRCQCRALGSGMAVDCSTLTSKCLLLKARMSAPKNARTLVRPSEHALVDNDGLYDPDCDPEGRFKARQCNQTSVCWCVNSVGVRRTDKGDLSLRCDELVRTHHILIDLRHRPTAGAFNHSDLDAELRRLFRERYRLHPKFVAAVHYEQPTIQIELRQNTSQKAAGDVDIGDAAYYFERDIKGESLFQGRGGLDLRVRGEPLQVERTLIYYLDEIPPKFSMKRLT
Procedure: Furthermore, antigen affinity was also examined by an ELISA method. ELISA was carried out using an ELISA plate which was coated with the recombinant protein of the hTROP-2 extracellular region as described in Example 3. […] Thereafter, the resultant was washed with a washing buffer (PBS containing 0.05% Tween 20), and a blocking buffer (PBS containing 2% skim milk and 0.05% Tween 20) was then added thereto (200 μl/well) to block it (at room temperature for 1 hour). The resultant was washed with a washing buffer. […] The obtained dilution samples were each added in an amount of 50 μl/well to the above-described ELISA plate (at room temperature for 2 hours). […] After the mixture had been washed with a washing buffer, a TMB (3,3′,5,5′-tetramethylbenzidine: SIGMA) substrate solution was added (50 μl/well) to the resultant to carry out a color reaction. Then, 1 M sulfuric acid (25 μl/well) was added to the reaction product to terminate the reaction. Using Microplate reader Model 550 (BioRad), an absorbance at 450 nm was measured with an absorbance at 655 nm used as a reference.

[3] = biological target: T3, human TROP-2 (hTROP-2) endogenously expressed on the cell surface of human cancer cell lines (human, UniProt P09758 27-323); experiment: FACS on BxPC-3 cells, 0.1 µg antibody
T3 construct: also called TACSTD2; PK-59 cells
T3 sequence: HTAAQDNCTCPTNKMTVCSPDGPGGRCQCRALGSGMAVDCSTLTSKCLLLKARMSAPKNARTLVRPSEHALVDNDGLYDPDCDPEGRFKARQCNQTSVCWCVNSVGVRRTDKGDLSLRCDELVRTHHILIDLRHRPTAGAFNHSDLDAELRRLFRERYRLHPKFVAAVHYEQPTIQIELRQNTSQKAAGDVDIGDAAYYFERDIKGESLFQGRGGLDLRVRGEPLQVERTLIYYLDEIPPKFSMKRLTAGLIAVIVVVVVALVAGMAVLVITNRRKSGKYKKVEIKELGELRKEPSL
Procedure: (§2) Cancer cells were removed from a culture dish by a trypsin treatment, and a cell suspension was then prepared (cell density: 2×10⁶ cells/mL). An anti-hTROP-2 monoclonal antibody (0.1 μg) was added to 100 μL of the cell suspension, and they were then reacted at 4° C. for 20 minutes. The reaction solution was washed with PBS, and it was then reacted with PE-labeled anti-mouse IgG (BD Biosciences Pharmingen) (0.1 μg) (at 4° C. for 30 minutes). Thereafter, the resultant was analyzed by FACSCalibur (Becton, Dickinson and Company).
(§3) Subsequently, the reactivity of the generated anti-hTROP-2 monoclonal antibodies with human cancer cell lines (in which an hTROP-2 protein was endogenously expressed on the cell surface) was examined by FACS analysis.

[4] = biological target: T4, mouse TROP-2 protein transiently expressed in CHO-K1 cells (mouse, UniProt Q8BGV3 25-317); experiment: FACS on CHO-K1 cells transiently expressing mouse TROP-2
T4 construct: whole, on cells
T4 sequence (looked up): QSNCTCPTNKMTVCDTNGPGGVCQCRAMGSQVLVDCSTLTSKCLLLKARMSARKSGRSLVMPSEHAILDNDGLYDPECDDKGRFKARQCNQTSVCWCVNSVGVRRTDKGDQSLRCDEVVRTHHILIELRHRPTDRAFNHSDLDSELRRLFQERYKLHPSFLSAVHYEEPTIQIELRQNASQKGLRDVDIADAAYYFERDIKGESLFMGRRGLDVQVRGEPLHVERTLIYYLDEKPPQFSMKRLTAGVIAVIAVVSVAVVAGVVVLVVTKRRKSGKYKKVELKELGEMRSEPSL
From the text: as §1

[5] = biological target: T3, human TROP-2 (hTROP-2) endogenously …; experiment: FACS on PK-59 cells, 0.1 µg antibody
Procedure: as §2, §3

B1: anti-hTROP-2 monoclonal antibody clone K5-70 (antibody, mouse IgG2a, V domains shown)
VH: QVQLQQPGAELVRPGASVKLSCKASGYTFTIYWINWVKQRPGQGLEWIGNIYPSDSYTNYNQKFKDKATLTVDKSSSTAYMQLSSPTSEDSAVYYCTRTSMADYWGQGTTLTVSS
VL: DILLTQSPAILSVSPGERVSFSCRASQSIGTSIHWYQQRTNGSPRLLIKYASESISGIPSRFSGSGSGTDFTLSINSVESEDIADYYCQQSNSWPFTFGSGTKLEIK
notes: mouse IgG2a, hybridoma FERM BP-11251; also called K5-70 antibody; mouse K5-70 antibody
binding result [1]: no binding (tested: 0.1 µg antibody) | EC50 [2]: 0.012 µg/mL | mean fluorescence intensity, times that with PE-labeled anti-mouse IgG alone [3]: 45 times | binding result [4]: no binding (tested: 0.1 µg antibody) | mean fluorescence intensity, times that with PE-labeled anti-mouse IgG alone [5]: 44 times

B2: anti-hTROP-2 monoclonal antibody clone T6-16 (antibody, mouse IgG2a, V domains shown)
VH: EVQLQQSGPELVKPGASVKISCKASGYTFTDYNMHWVKQSHGKNLEWIGYIYPYNGGTGYNQRFKSRATMTVDKSSSTAYMELRSLTSDDSAVYYCAREDYGSSPSYAMDYWGQGTSVIVSS
VL: DVVMTQTPLSLPVSLGDQASISCRSSQSLVHGNGNTYLHWYLQKPGQSPKLLIYKVSNRFSGVPDRFSGSGSGTDFTLKISRVEAEDLGVYFCSQTTHVPTFGSGTKLEIK
notes: mouse IgG2a, hybridoma FERM BP-11346; also called T6-16 antibody
binding result [1]: no binding (tested: 0.1 µg antibody) | EC50 [2]: 0.041 µg/mL | mean fluorescence intensity, times that with PE-labeled anti-mouse IgG alone [3]: 25 times | binding result [4]: no binding (tested: 0.1 µg antibody) | mean fluorescence intensity, times that with PE-labeled anti-mouse IgG alone [5]: 59 times
